Laboratory results as given in US7547509B2, “Cyanovirin variant-polymer conjugates” (priority 2002, dated 2009).

Tests used:
HIV = assay: Anti-HIV bioassay conducted at the National Cancer Institute; assay type: cell-based; conditions: against HIV, methods of U.S. Pat. No. 5,843,883
Procedure: Bioassays were conducted at the National Cancer Institute using the methods described in U.S. Pat. No. 5,843,883 (column 20, lines 20-55), which patent is incorporated herein by reference.

influenza A/Udorn (H3N2) = assay: Influenza virus inactivation assay (protection of MDCK cells); assay type: cell-based; conditions: read on day 5, read-out: ED50 (dose required to protect 50% of MDCK cells from influenza infection)
[1] = Acute toxicity dose escalation study in mice; assay type: in vivo, Hsd:ICR(CD-1) mice; conditions: intravenously on three consecutive days, high doses / equivalent dose
Procedure: To compare the acute toxicity of native CV-N and the PEG30 kD-MAL-CV-N(Q62C) conjugate, an in vivo dose escalation study was performed in which Hsd:ICR(CD-1) mice were administered modified or unmodified CN-N intravenously on three consecutive days.

B1: Cyanovirin-N (protein, listed as Nostoc ellipsosporum)
chain: LGKFSQTCYNSAIQGSVLTSTCERTNGGYNTSSIDLNSVIENVDGSLKWQPSNFIETCRNTQLAGSSELAAECKTRAQQFVSTKINLDDHIANIDGTLKYE
What does the source list for B1?
ED50 (HIV): 1 ng/mL; EC50 (influenza A/Udorn (H3N2)): 2.56 nM; acute toxicity (observation) [1]: death of all of the mice
